The source of these data is article PMC11026473.

The target of this experiment is myc-Xbra (UniProt P24781). Description: co-immunoprecipitation (IP: Flag, WB: Myc), band intensity quantified. Conditions: Xenopus embryos injected with flag-smad1 constructs and myc-xbra; parent: est. 1.0; read off a plot.
Chain of UniProt P24781 (P24781 whole entry): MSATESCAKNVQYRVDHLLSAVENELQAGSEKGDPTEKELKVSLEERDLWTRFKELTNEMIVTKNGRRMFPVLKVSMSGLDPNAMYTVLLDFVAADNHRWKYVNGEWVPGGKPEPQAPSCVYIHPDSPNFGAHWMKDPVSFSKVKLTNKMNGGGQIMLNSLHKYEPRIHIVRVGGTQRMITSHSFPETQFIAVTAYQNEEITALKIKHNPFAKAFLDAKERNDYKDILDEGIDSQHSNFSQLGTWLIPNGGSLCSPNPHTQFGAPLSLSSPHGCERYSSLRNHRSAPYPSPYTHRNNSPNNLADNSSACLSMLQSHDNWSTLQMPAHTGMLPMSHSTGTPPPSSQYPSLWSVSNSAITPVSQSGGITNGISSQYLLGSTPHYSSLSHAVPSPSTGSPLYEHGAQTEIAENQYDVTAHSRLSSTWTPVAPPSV

For the substance “flag-Smad1 (WT) (from UniProt Q15797) S187A; S196A; S206A; S214A; C-terminal SSXS to DDXD (4SA3SD)”, the ratio to parent was determined as 0.65. As for “flag-Smad1 (WT) (from UniProt Q15797) S187D; S196D; S206D; S214D; C-terminal SSXS to DDXD (4SD3SD)”, the ratio to parent stood at 4.1.
